Measurements published in the RNAGym collection of RNA variant scans (doi:10.1073/pnas.2313332121).
This sample holds only a part of the variants without activity.

B1: TPR 5TU (parent)
chain: GGAUCUUCUCGAUCUAACAAAAAAGACAAAUCUGCCACAAAGCUUGAGAGCAUCUUCGGAUGCAGAGGCGGCAGCCUUCGGUGGCGCGAUAGCGCCAACGUUCUCAACUAUGACACGCAAAACGCGUGCUCCGUUGAAUGGAGUUUAUCAUG

Variants of: B1
Test: polymerase ribozyme fitness, log enrichment relative to wild type (log ratio); higher = more active; in vitro selection for triplet polymerase activity
Procedure, shortened: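 In triplicate, a single round of in vitro selection was run on each mutant library, PCR-built and transcribed, covering one subunit of a heterodimeric triplet polymerase ribozyme. Frozen incubation at −7 °C followed annealing with a biotinylated primer, partner subunit and triplets, and extended constructs were then gel-excised, streptavidin-captured and taken through RT-PCR. Fitness is the logarithm of genotype enrichment over wild-type enrichment, from inverse-variance-weighted replicate averages of Illumina-sequenced inputs and outputs. […] only genotypes with ≥10 input reads and ≥1 read per output were kept.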

Row | Variant | polymerase ribozyme fitness (log ratio)
1 | GGAUCUUCUCGAUUUAACAAAAAAGACAAAUCUGCCACAAAGCUUGAGAGCAUCUUCGGAUGCAGAGGCGGCAGCCUUCGGUGGCGCGAUAGCCCCAACGUUCUCAGCUAUGACACACAAAACGCGUGCUCCGUUGAAUGGUGUUUAUCAUG | ≤ -4.2
2 | GGAUCUUCUCGAUUUAACAAAAAAGACAAAUCUGCCACAAAGCUUGAGAGCAUCUUCGGAUGCAGAAGCGGCAGCCUUCGGUGGCGCAAUAGCGCCAACGUUCUCAACUAUGACACGCAAAACGCGUGCUCCGUUUAAUGGAGUUUAUCAUG | ≤ -4.2
3 | GGAUCUUCUCGAUUUAACAAAAAAGACAAAUCUGCCACAAAGCUUGAGAGCAUCUUCGGAUGCAGAGGCGGCAGCCUUCGGUGGCGUGAUAGCGCCAACGUUCUCAACUAUGACACGCAAAACGCGUGCUCCGUUGAAUGGAGUUUAUCAUG | -2.18
4 | GGAUCUUCUCGAUUUAACAAAAAAGACAAAUCUGCCACAAAGCUUGAGAGCAUCUUCGGAUGCAGAGGCGGCAGCCUUCGGUGGCGAGAUAGCGCCAACGUUCUCAACUAUGACACGCAAAACGCGUGCUCCGUUGAAUGGAGUUUAUCAUG | ≤ -4.2
5 | GGAUCUUCUCGAUUUAACAAAAAAGACAAAUCUGCCACAAAGCUUGAGAGCAUCUUCGGAUGCAGAGGCGGCAGCCUUCGGUGGAGCGAUAGCGCCAACGUUCUCAACUAUGACACGCAAAACGCGUGCUCCGUUGAAUAGAGUUUAUCAUG | ≤ -4.2
6 | GGAUCUUCUCGAUUUAACAAAAAAGACAAAUCUGCCACAAAGCUUGAGAGCAUCUUCGGAUGCAGAGGCGGCAGCCUUCGGUGUCGCGAUAGCGCCAACGUUCUCAUCUAUGACACGCAAAACGCGUGCUCCGUUGAAUGGAGUUUUUCAUG | ≤ -4.2
7 | GGAUCUUCUCGAUUUAACAAAAAAGACAAAUCUGCCACAAAGCUUGAGAGCAUCUUCGGAUGCAGAGGCGGCAGCCUUCGGUGGCGCGAUAGCGCCAACGUUCUGAACUAUGACACGCAAAACGCGUGCUCCGUUGAAUGGAGUUUAUCAUG | -3.25
8 | GGAUCUUCUCGAUUUAACAAAAAAGACAAAUCUGCCACAAAGCUUGAGAGCAUCUUCGGAUGCAGAGGCGGCAGCCUUCGGUGGCGCGAUAGCGCAAACGUUCUCAACUAUGACACGCAAAACGCGUGCUCCGUUGAAUGGAGUUUAUCAUG | -1.59
9 | GGAUCUUCUCGAUUUAACAAAAAAGACAAAACUGCCACAAAGCUUGAGAGCAUCUUCGGAUGCCGAGGCGGCAGACUUCGGUGGCGCGAUAGGGCCAACGUUUUCAACUAUGACACGCAAAACGCGUGCUCCGUUGAAUGGAGUUUAUCAUG | ≤ -4.2
10 | GGAUCUUCUCGAUUGAACAAAAAAGACAAAUCUGCCACAAAGCUAGAGAGCAUCUUCUGAUGCAGAGGCGGCAGGCUUCGGUGGCGCGAUAGCGCCAACGUUCUCAACUAUGACACGCAAAACGCGUGCUCCGUCGAAUGGAGUUUAUCAUG | ≤ -4.2
11 | GGAUCUUCUCGAUUUAACAAAAAAGACAAAUCUGCCACAAAGCUUGAGAGCAUCUUCGGAUGCAGAGGCGGCAGCAUUCGGUGGCGUGAUAGCGCCAACGUUCUCAACUAUGACACGCAAAACGCGUGCUCCGUUGAAUGGAGUUUAUCAUG | -3.49
12 | GGAUCUUCUCGAUUUAACAAAAAAGACAAAUCUGCCACAAAGCUUGAGAGCAUCUUCGGAUGCAGAAGCGGCAGCCUUCGGUGGCGCGAUAGCGCCAACGUUCUCAACUAUGACACGCAAAACGCGUGCUCCGUUGAAUGGAGUUUAUCACG | ≤ -4.2
13 | GGAUCUUCUCGAUUUAACAAAAAAGACAAAUCUGCCACAAAGCUUGAGAGCAUCUUCGGAUGCAGAGGCGGCAGCCUUCGGUGGCGCGAUACCGCCAACGUUCUCAACUAUGACACGCAAAACGCGUGCUCCGUUGAAUGGAGUUUAUCUUG | -4.2
14 | GGAUCUUCUCGAUUUAACAAAAAAGACAAAUCUGCCACAAAGCUUGAGAGCAUCUUCGGAUGCAGAGGCGGCAGCCUUCGGUUGCGCCAUAGCGCCAACGUUCUCAACUAUGACACGCAAAACGCGUGCUCCGUUGAAUGGAGUUUGUCAUG | ≤ -4.2
15 | GGAUCUUCUCGAUUUAACAAAAAAGACAAAUCUGCCACAAAGCUUGAGAGCAUCUUCCGAUGCAGAGGCGGCAGCCUUCGGUGGUGCGGUAGCGCCAACGUUCUCAACUAUGACACGCAAAACGCGUGCUCCGUUAAAUGGAGUUUAUCAUG | -3.44
16 | GGAUCUUCUCGAUUUAACAAAAAAGACAAAUCUGCCACAAAGCUUGAGAGCAUCUUCGGAUGCAGAGGCGGCAGCCUUCGGUGGCGUGAUAGCGCCAAUGGUCUCAACUAUGACACGCAAAACGCGUGCUCCGUUGCAUGGAGUGUAUCAUG | ≤ -4.2
17 | GGAUCUUCUCGAUUUAACAAAAAAGACAAAUCUGCCACAAAGCUUGAGAGCAUCUUCGGAUCCAGAGGCGGCAGACUUCGGUGGCGCGAUAGGGCCAACGUUCUCAACUAUGACACGCAAAACGCGUGCUCCGUUGAAUGGAGUUUAUCAUG | ≤ -4.2
18 | GGAUCUUCUCGAUUUAACAAAAAAGACAAAUCUGCCACAAAGCUUGAGAGCAUCUUCGGAUGCAGAGGCGGCAGCCUUCGGUGGCGUGAUAGCGCCAACGUCCUCAACUAUGACACGCAAAACGCGUGCUCCGUUGAAUGGAGUUUAUCAUG | -4.18
19 | GGAUCUUCUCGAUUUAACAAAAAAGACAAAUCUGCCACAAAGCUUGAGACCAUCUGCGGAUGCAGAGGUGGCAGCCUUCGGUGGCGCGAUAGCGCCAACGUUCUCAACUAUGACACGUAAAACGCGUGCUCCGUUGAAUGGAGUUUAUCAUG | ≤ -4.2

Row | Variant | polymerase ribozyme fitness (log ratio)
20 | GGAUCUUCUCGAUUUAACAAAAAAGACAAAUCUGCCACAAAGCUUGAGAGCAUCUUCGGAUGCAGAGGCGGCAGCCUUCGGUGGUGCGAUAGCGCCAACGUUCUCAACUAUGACACGCAAAACGCGUGCUCCGUUGAAUGGAGUUUAUCAUG | -1.65
21 | GGAUCUUCUCGAUUUAACAAAAAAGACAAAUCUGCCACAAAGCUUAAGAGCAUAUUCGGAUGCAGAGGCGGCAGCCUUCGGUGGCGCGAUAGCGCCAACGUUCUCAACUAUGACACGCAAAACGCGUGCUCAGUUGAAUGGAGUUUAUCAUG | ≤ -4.2
22 | GGAUCUUCUCGAUUUAACAAAAAAGACAAAUCUGCCACAAAGCUUGAGAGCAUCUUCGGAUGCAGAGGCGGCAGCCUUCGAUGGCGCGAUAGCGCCAACGUUCUCAACUAUGACACGCAAAACGCGUGCUCCGUUGAAUGGAGUUUAUCAUG | -1.14
23 | GGAUCUUCUCGAUUUAACAAAAAAGACAAAUCUGCCACAAAGCUUGAGAGCAUCUUCGGAUGCAGAGGCGGCAGCCUUCGGUGGCGCGAUAGCGCCAACGUUCUCAACUAUGACACGUAAAACGCGUGCUCCGUUGAAUGGAGUUUAUCAUG | -1.65
24 | GGAUCUUCUCGAUUUAACAAAAAAGACAAAUCUGCCACAAAGCUUGAAAGCAUCUUCGGAUGCCGAGGCGGCAGCCUUCGGUGGCGCGACAGCGCCAACGUGGUCAACUAUGACGCGCAAAGCGCGAGCUCCGUUGAAUGGAGUUUAUCCUG | ≤ -4.2
25 | GGAUCUUCUCGAUUUAACAAAAAAGACAAAUCUGCCACAAAGCUUGAGAGCAUCUUCGGAUGCAGAGGCGGCAGCCUUCGGUGGCGUGAUAGCGCCAACGCUCUCAACUAUGACACGGAAAACGCGUGCUCCGUUGAAUGGAGUUUAUCAUG | -3.29
26 | GGAUCUUCUCGAUUUAACAAAAAAGACAAAUCUGCCACAAAGCUUGAGACCAUCUUCGGAUGCAGAGGCGGCAGCCUUCGGUGGCGCGAUAGCGCCAACGUUCUCAACUAUGACACGCAAAACGCGUGCUCCGUUGAAUGGAGUUUAUCAUG | -3.52
27 | GGAUCUUCUCGAUUUAACAAAAAAGACAAAUCUGCCACAAAGCUUGAGAUCAUCUUCGGAUGCAGAGGCGGCAGCCUUCGGUGGCGCGAUAGCGCCAACGUUCUCAACUAUGACACGCAAAACGCGUGCUCCGUUGAAUGGAGUUUAUCAUG | -1.15
28 | GGAUCUUCUCGAUUUAACAAAAAAGACAAAUCUGCCACAAAGCUUGAGAGCAUCUUCGGAUGCAGAGGCGGCAGCCUUCGGUGGCGCGAUAGAGCCAACGUUCUCAACUAUGACACGCAAAACGCGUGCUCCGUUGAAUGGAGUUUAUCAUG | -3.4
29 | GGAUCUUCUCGAUUUAACAAAAAAGACAAAUCUGCCACAAAGCUUGAGAGCAUCUUCGGAUGCAGAGGCGGCAGCCUUCGGUGGCGCGAUAGUGCCAACGUUCUCAACUAUGACACGCAAAACGCGAGCUACGUUGAAUGGAGUUUAUCAUG | ≤ -4.2
30 | GGAUCUUCUCGAUUUAACAAAAAAGACAAAUCUGCCACAAAGCUUGAGAGCAUCUUCGAAUGCAGAGGCGGCAGCCUUCGGUGGUGCGAUAGCGCCAACGUUCUCAACUAUGACACGCAAAACGCGUGCUCCGAUGAAUGGAGUUUAUCAUG | -4.12
31 | GGAUCUUCUCGAUUCAACAAAAUAGACAAAUCUGCCACAAUGCUUGAGAGCAUCUUCGGAUGCAGAGGCGGCAGCCUUCGGUGGAGCGAUAGCGCCAACGUUCUCAACUAUGACACGCAAAACGCGUGCUCCGUUGAAUGGAGUUUAUCAUG | ≤ -4.2
32 | GGAUCUUCUCGAUUUAACAAAAAAGACAAAUCUGCCACAAAGCUUGAGAGCAUCUUCGGAUGCAGAGGCGGCAACCUUCGGUGGCGCGAUAGCACCAACGUUCUCAACUAUGACACGCAAAGCGCGUGCUCCGUUGAAUGGAGUUUAUCAUG | ≤ -4.2
33 | GGAUCUUCUCGAUUUAACAAAAAAGACAAAUCUGCCACAAAGCUUGAGAGCAUCUUCGGAUGCAGAGGCGGCAGCCUUCGGUGGCGCGAUAACGCCAACGUUGUCAACUAUGACACGCAAAACGCGUGCUCCGUUGAAUGGAGUUUAUCAUG | ≤ -4.2
34 | GGAUCUUCUCGAUUUAACAAAAAAGACAAAUCUGCCACAAAGCUAGAGAGCAUCUUCGGAUGCAGAGGCGGCAGCCUUCGGUGGCGCGAUUGCGCCAACGUUCUCAACUAUGACACGCAAAACGCGGGCUCCGUUGAAUGGAGUUUAUCAUG | ≤ -4.2
35 | GGAUCUUCUCGAUUUAACAAAAAAGACAAAUCUGCCACAAAGCUUGAGAGCAUCUUCGGAUGCAGAGGCGGCAGCCUUAGGUGACGCGAUAGCGCCAACGUUCUCAACUAUGACACGCAAAACGCGUGCUCCGUUGAAUGGAGUUUAUCGUG | ≤ -4.2
36 | GGAUCUUCUCGAUUUAACAAAAAAGACAAAUCUGCCACAAAGCUUGAGAGCAUCUUCGGAUGCAGAGGCGGCAGCCUUCGGUGGCGCGAUAGCCCCAACGUUCUCAACUAUGACACGCAAAACGCGUGCUCCGUUGAAUGGAGUUUAUCAUG | -2.9
37 | GGAUCUUCUCGAUUUAACAAAAAAGACAAAUCUGCCACAAAGCUUGAGAGCAUCUUCGGAUGCAGAGGCGGCAGCCUUCGGUGGCGCGAUAGCACCAACGUUCUCAACUAUGACACGCAAAACGCGUGCUCCGUUGAAUGGAGUUUAUCAUG | -1.85
38 | GGAUCUUCUCGAUUUAACAAAAAAGACAAAUCUUCCACAAAGCUUGAGAGCAUCUUCGGAUGCAGAGACGGCAGCCUUCGGUGGUGCGAUAGCGCCAACGUUCUCAACUAUGACACGCAAAACGCGUGCUCCGUUGAAUGGAGAUUAUAAUG | ≤ -4.2
